T1: Macaca fascicularis IL-36R on cells (Macaca fascicularis, UniProt A0A2K5WSK9 20-558)
T1 sequence: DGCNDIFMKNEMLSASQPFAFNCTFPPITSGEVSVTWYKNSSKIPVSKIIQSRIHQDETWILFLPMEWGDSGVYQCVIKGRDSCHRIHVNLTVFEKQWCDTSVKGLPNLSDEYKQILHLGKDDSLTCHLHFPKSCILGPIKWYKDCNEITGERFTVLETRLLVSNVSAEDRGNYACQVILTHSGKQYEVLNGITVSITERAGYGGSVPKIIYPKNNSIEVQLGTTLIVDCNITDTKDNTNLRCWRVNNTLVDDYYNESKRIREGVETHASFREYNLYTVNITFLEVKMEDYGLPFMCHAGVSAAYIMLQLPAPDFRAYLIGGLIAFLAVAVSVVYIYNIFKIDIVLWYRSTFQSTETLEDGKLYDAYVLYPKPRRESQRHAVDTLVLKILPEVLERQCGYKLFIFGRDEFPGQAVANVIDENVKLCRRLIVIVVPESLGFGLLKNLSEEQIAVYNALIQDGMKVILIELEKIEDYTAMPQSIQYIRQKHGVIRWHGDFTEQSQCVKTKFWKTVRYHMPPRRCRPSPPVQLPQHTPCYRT

T2: full-length human IL-36R on cells (human, UniProt Q9HB29 20-575)
T2 sequence (looked up): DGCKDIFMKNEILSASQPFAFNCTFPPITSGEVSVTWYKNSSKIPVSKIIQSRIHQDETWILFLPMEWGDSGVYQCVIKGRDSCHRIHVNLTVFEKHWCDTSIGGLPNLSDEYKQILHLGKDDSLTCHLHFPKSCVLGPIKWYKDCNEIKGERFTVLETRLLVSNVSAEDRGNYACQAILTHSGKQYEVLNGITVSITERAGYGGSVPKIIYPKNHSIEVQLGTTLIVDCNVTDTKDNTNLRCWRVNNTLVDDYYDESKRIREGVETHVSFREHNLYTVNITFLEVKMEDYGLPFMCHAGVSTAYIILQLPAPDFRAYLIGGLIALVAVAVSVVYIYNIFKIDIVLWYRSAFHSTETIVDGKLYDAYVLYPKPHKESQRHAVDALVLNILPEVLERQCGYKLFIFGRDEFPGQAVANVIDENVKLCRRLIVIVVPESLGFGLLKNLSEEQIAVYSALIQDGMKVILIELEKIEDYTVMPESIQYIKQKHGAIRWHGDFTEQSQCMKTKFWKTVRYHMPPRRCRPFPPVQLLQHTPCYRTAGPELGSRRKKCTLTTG


What was measured:
[1] = biological target: T1, Macaca fascicularis IL-36R on cells; test: cell-based or functional assay
[2] = biological target: T3, recombinant human IL-36R extracellular domain expressed with a C-terminal myc-myc-hexahistidine tag (human, UniProt Q9HB29 20-337); test: SPR (Biacore 4000), mAb captured on anti-human Fc, 25°C
T3 construct: also called hIL-36R-MMH; hIL-36R.mmH
Experimental: (§1) Equilibrium dissociation constants (KD values) for IL-36R binding to purified anti-IL-36R antibodies were determined using a real-time surface plasmon resonance biosensor using a Biacore 4000 instrument. The Biacore sensor surface was first derivatized by amine coupling with a monoclonal mouse anti-human Fc antibody (GE, # BR-1008-39) to capture anti-IL-36R monoclonal antibodies. All binding studies were performed in 0.01 M Hepes pH 7.4, 0.15 M NaCl, 3 mM EDTA, and 0.05% v/v Surfactant Tween-20 (HBS-ET running buffer) at 25° C. and 37° C. Different concentrations of IL-36R reagents, human IL-36R extracellular domain expressed with a C-terminal myc-myc-hexahistidine tag (hIL-36R-MMH), Macaca fascicularis IL-36R extracellular domain expressed with a C-terminal myc-myc-hexahistidine tag (mfIL-36R-MMH: mROR1 signal sequence (M1-A29). Macaca fascicularis IL36R_ecto domain (D20-A336).mycmycHis6), human IL-36R extracellular domain expressed with a C-terminal mouse IgG2a Fc tag (hIL-36R-mFc: mROR1 signal sequence (M1-A29)-human IL36R (D20-Y337)-mouse IgG2aFc (E98-K330)) or an in-line fusion protein of human IL-36R extracellular domain and IL1RAcP extracellular domain expressed with mouse IgG2a Fc tag (hIL-36R-Trap-mFc: mROR1 signal sequence (M1-A29)-human IL36R ecto domain (D20-Y337)-human IL1RacP ecto domain(S21-E359)-mouse IgG2aFc) in HBS-ET running buffer (ranging from 100 nM to 3.7 nM, 3-fold dilutions) were injected over the anti-IL-36R antibody captured surface for 4 minutes at a flow rate of 30 μL/minute and their dissociation in HBS-ET running buffer was monitored for 10 minutes. Kinetic association rate constant (kₐ) and dissociation rate constant (kd) were determined by fitting the real-time sensorgrams to a 1:1 binding model using Scrubber 2.0c curve fitting software. Binding dissociation equilibrium constants (KD) and dissociative half-lives (t_{1/2}) were calculated from the kinetic rate constants as: […]

[3] = biological target: T2, full-length human IL-36R on cells; test: cell-based or functional assay
[4] = biological target: T3, recombinant human IL-36R extracellular …; test: SPR (Biacore 4000), mAb captured on anti-human Fc, 37°C
Experimental: as §1

Row | Binder | IC50 [M], NFκB-luciferase, 300 pM hIL-36γ [1] [M] | IC50 [M], NFκB-luciferase, 600 pM hIL-36β [1] [M] | Max Inhibition (%), NFκB-luciferase, 300 pM hIL-36γ [1] [%] | Max Inhibition (%), NFκB-luciferase, 600 pM hIL-36β [1] [%] | 100 nM hIL-36R-MMH Bound (RU) [2] [RU] | Kd [2] [nM] | koff [2] [s⁻¹] | kon [2] [M⁻¹ s⁻¹] | t½ [2] [min] | IC50 [M], NFκB-luciferase, 10 pM hIL-36γ [3] [M] | IC50 [M], NFκB-luciferase, 20 pM hIL-36α [3] [M] | Max Inhibition (%), NFκB-luciferase, 10 pM hIL-36γ [3] [%] | Max Inhibition (%), NFκB-luciferase, 20 pM hIL-36α [3] [%] | 100 nM hIL-36R-MMH Bound (RU) [4] [RU] | Kd [4] [nM] | koff [4] [s⁻¹] | kon [4] [M⁻¹ s⁻¹] | t½ [4] [min] | IC50 [M], NFκB-luciferase, 500 pM hIL-36α [1] [M] | Max Inhibition (%), NFκB-luciferase, 500 pM hIL-36α [1] [%] | other results
1 | H4H14760P2 (antibody, human IgG4 S228P, kappa, V domains shown) VH: QVQLVESGGGVVQPGKSLRLSCAASGFTFSNYGIHWVRQAPGKGLEWVAIILYDGSNQHYADSVKGRFTISRDNSKNTLYLQMNNLRAEDTAVYYCARDLDLWSGYYTNGDGMDVWGQGTTVTVSS VL: not shown | > 1e-07 | > 1e-07 | 43 | 48 | 61 | 6.11 | 0.000415 | 67900 | 28 | 7e-10 | 4.9e-10 | 49 | 99 | 83 | 23 | 0.00208 | 90600 | 6 |  |  | 
2 | H4H14732P2 (antibody, human IgG4 S228P, kappa, V domains shown) VH: EVQLVESGGGLVQPGRSLRLSCAASGFTFDDYAMHWVRQAPGKGLEWVSGINWAGYNIDYADSVKGRFTISRDNAKNSLYLQMNSLRAEDTALYYCAKDMRGFSYGFPFDYWGQGTLVTVSS VL: not shown | > 1e-07 | > 1e-07 | 36 | 43 | 26 | 13.9 | 0.000569 | 41000 | 20 | > 1e-08 | > 1e-08 | 69 | 61 | 34 | 27.6 | 0.00116 | 42100 | 10 | > 1e-07 | 47 | IC50 [M], NFκB-luciferase, 15 pM hIL-36β [3]: > 1e-08 M; Max Inhibition (%), NFκB-luciferase, 15 pM hIL-36β [3]: 69%
3 | H4H14731P (antibody, human IgG4 S228P, kappa, V domains shown) VH: QLQLQESGPGLVKPSETLSLTCTVSGGSISSSNYYWGWIRQPPGKRLEWIGSIYYSGSTYYNPSLKTRVTISVDTSKNQFSLKLTSVTAADTAVYYCAREEAAALTHFDFWGQGTLVTVSS VL: DIQMTQSPSSLSASVGDRVTITCRASQSISNYLNWYQQKPGKAPKLLIFAASSLQSGVPSRFSGSGSGTDFTLTISSLQPEDFATYYCQHSHSSHPITFGQGTRLEIKR | 5.4e-09 | 7.1e-09 | 75 | 78 | 54 | 3.72 | 0.000343 | 92200 | 34 | 7.3e-10 | 7.8e-10 | 99 | 99 | 81 | 7.11 | 0.000971 | 137000 | 12 | 3.1e-09 | 84 | IC50 [M], NFκB-luciferase, 15 pM hIL-36β [3]: 9.4e-10 M; Max Inhibition (%), NFκB-luciferase, 15 pM hIL-36β [3]: 99%
4 | H4H14757P (antibody, human IgG4 S228P, kappa, V domains shown) VH: EVQLVESGGGLVQPGRSLRLSCTASGFTFDDYAMHWVRQAPGKGLEWVSGIRWNGGSIGYVDSVKGRFTISRDNAKKSLHLQMNSLKTEDTALYYCAKDIGDILTGFYGEYGMDVWGQGTTVTVSS VL: DIQMTQSPSSLSASEGDRVTITCRASQSISSYLNWYQQKAGKAPNLLIYAASSLQSGVPSRFSGSGSGTEYTLTISSLQPEDFATYYCQQSYIIPYTFGQGTKLEIKR | > 1e-07 | > 1e-07 | 25 | 36 | 94 | 2.18 | 0.000396 | 182000 | 29 | 1.3e-10 | 1.8e-10 | 87 | 101 | 129 | 5.18 | 0.00109 | 210000 | 11 | > 1e-07 | 29 | 

— patent publication US20200017592A1 (Regeneron, published 2020)
